Patent US20250152742A1, “COMPOSITIONS AND METHODS FOR NEUROLOGICAL DISEASES” (Trames Bio, Inc., priority 2022, published 2025)

System: engineered chimeric receptor SEQ ID NO: 33 and its mutants (human α7-nAChR ligand binding domain / human GlyRα1 ion pore domain) in Lenti-X 293T cells
Test: YFP fluorescence quenching anion reporter plate reader assay (percent quench, EC50)
Format: cell-based
Settings: for YFP fluorescence quenching using CNL001 (percent quench): receptor named in row; for YFP fluorescence quenching using Varenicline, 3 nM var: ligand Varenicline 3 nM; for YFP fluorescence quenching using Varenicline, 30 nM var: ligand Varenicline 30 nM; for YFP fluorescence quenching using Varenicline, 300 nM var: ligand Varenicline 300 nM; for YFP fluorescence quenching using Varenicline, 500 nM var: ligand Varenicline 500 nM; for YFP fluorescence quenching using Varenicline, 1 uM var: ligand Varenicline 1 uM
Source text: To screen these mutant LGICs for those having novel response profiles to ligands, an anion reporter assay was developed to assess the function of the LGICs in a high throughput format. In this assay, cells expressing a YFP reporter whose fluorescence is quenched in the presence of anion are transfected with DNA encoding the channel of interest. Upon exposure to ligand, channels that are activated will flux anion, resulting in a dose-dependent quench of the YFP that can be detected on a plate reader. The greater the quench signal (i.e., the more positive the value), the higher the ligand activity on the receptor is.
Lenti-X 293T cells (LX293T, Clontech) were maintained in DMEM containing 10% FBS and 1% penicillin/streptomycin (Invitrogen). […] Two days before assay, cells were split at a density of 20,000 cells/well in a 96-well tissue culture plate coated with poly-d lysine (Thermo Scientific). The next day, the cells were transiently transfected with 0.1 μg of DNA per well using standard Fugene protocol (Promega). On the day of assay, cells were washed 2 times in 1X extracellular solution (1X ECS: 140 mM NaCl, 5 mM KCl, 1 mM MgCl2, 2 mM CaCl2, 10 mM HEPES, 10 mM glucose, pH 7.2, mOsms 300). After the last wash, 100 μL of 1X ECS was added to the wells and the plate was incubated at 37° C. for 30 min. While incubating the plate, the drugs were diluted to a 2X concentration in 1X ECS-Nal (same components as 1X ECS except the 140 mM NaCl was replaced by 140 mM Nal). The plates were then read on a Flexstation3 (Molecular Devices). Each well, 8 wells at a time, of the plate is read for 2 min using a Flexstation3 (Molecular Devices) as follows: 1) a baseline YFP fluorescence is read for 17 sec, 2) 100 μL of ligand is added, and 3) the changes in YFP fluorescence are then measured every 1.3 sec for 1 minute and 43 seconds. The percent quench is calculated from the average fluorescence of the last 10 seconds of the read divided by the baseline average of the first 15 seconds prior to the ligand addition.
FIGS. 1A-1J provide heat maps of the percent quench of YFP fluorescence following stimulation by various doses of either acetylcholine or the non-native ligand as indicated in the Figures. CODA71 (SEQ ID NO: 33) was used as a control, and CODA75 (SEQ ID NO: 29, a non-responding chimeric engineered receptor) was used as the negative control. Quenching of the fluorescence signal, as indicated by blue shaded cells, indicate the level of engineered receptor activation by the non-native ligand at that concentration.

B1: CODA326: engineered receptor: L131A in SEQ ID NO: 33 (protein)
chain: MRCSPGGVWLALAASLLHVSLQGEFQRKLYKELVKNYNPLERPVANDSQPLTVYFSLSLLQIMDVDEKNQVLTTNIWLQMSWTDHYLQWNVSEYPGVKTVRFPDGQIWKPDILLYNSADERFDATFHTNVAVNSSGHCQYLPPGIFKSSCPMDLKNFPMDVQTCKLKFGSWSYGGWSLDLQMQEADISGYIPNGEWDLVGIPGKRSERFYECCKEPYPDVTFTVTMRRRMGYYLIQMYIPSLLIVILSWISFWINMDAAPARVGLGITTVLTMTTQSSGSRASLPKVSYVKAIDIWMAVCLLFVFSALLEYAAVNFVSRQHKELLRFRRKRRHHKSPMLNLFQEDEAGEGRFNFSAYGMGPACLQAKDGISVKGANNSNTTNPPPAPSKSPEEMRKLFIQRAKKIDKISRIGFPMAFLIFNMFYWIIYKIVRREDVHNQ
modifications: synthetic sequence of chimeric LGIC
YFP fluorescence quenching using CNL001 (percent quench) (1 nM CNL001, first column so headed): 76.424% | YFP fluorescence quenching using CNL001 (percent quench) (1 nM CNL001, second column so headed): 80.567% | YFP fluorescence quenching using TC-5619/Bradanicline (percent quench) (3 nM brd (TC-5619/Bradanicline)): 72.24% | YFP fluorescence quenching using CNL001 (percent quench) (10 nM CNL001, first column so headed): 80.284% | YFP fluorescence quenching using CNL001 (percent quench) (10 nM CNL001, second column so headed): 81.232% | YFP fluorescence quenching using TC-6683 (percent quench) (30 nM TC-6683): −16.28% | YFP fluorescence quenching using TC-5619/Bradanicline (percent quench) (30 nM brd (TC-5619/Bradanicline)): 77.4% | YFP fluorescence quenching using CNL001 (percent quench) (50 nM CNL001, first column so headed): 81.575% | YFP fluorescence quenching using CNL001 (percent quench) (50 nM CNL001, second column so headed): 82.544% | YFP fluorescence quenching using ABT-126 (percent quench) (50 nM abt (ABT-126)): −21.91% | YFP fluorescence quenching using CNL001 (percent quench) (100 nM CNL001, first column so headed): 81% | YFP fluorescence quenching using CNL001 (percent quench) (100 nM CNL001, second column so headed): 81.718% | YFP fluorescence quenching (percent quench) (100 nM CNL002): 27.88% | YFP fluorescence quenching using ABT-126 (percent quench) (100 nM abt (ABT-126)): −0.5% | YFP fluorescence quenching using AZD-0328 (percent quench) (100 nM azd0328): 80.39% | YFP fluorescence quenching using TC-6683 (percent quench) (300 nM TC-6683): −11.73% | YFP fluorescence quenching using ABT-126 (percent quench) (300 nM abt (ABT-126)): 34.86% | YFP fluorescence quenching using AZD-0328 (percent quench) (300 nM azd0328): 82.07% | YFP fluorescence quenching using TC-5619/Bradanicline (percent quench) (300 nM brd (TC-5619/Bradanicline)): 78.02% | YFP fluorescence quenching using CNL001 (percent quench) (1 uM CNL001, first column so headed): 82.334% | YFP fluorescence quenching using CNL001 (percent quench) (1 uM CNL001, second column so headed): 81.539% | YFP fluorescence quenching (percent quench) (1 uM CNL002): 73.79% | YFP fluorescence quenching using ABT-126 (percent quench) (1 uM abt (ABT-126)): 56.66% | YFP fluorescence quenching using TC-6683 (percent quench) (3 uM TC-6683): −2.38% | YFP fluorescence quenching (percent quench) (10 uM ach (acetylcholine)): 7.43% | YFP fluorescence quenching (percent quench) (30 uM CNL002): 75.89% | YFP fluorescence quenching using TC-6683 (percent quench) (30 uM TC-6683): −9.77% | YFP fluorescence quenching using AZD-0328 (percent quench) (30 uM azd0328): 82.23% | YFP fluorescence quenching using TC-6683 (percent quench) (100 uM TC-6683): 0.97% | YFP fluorescence quenching (percent quench) (100 uM ach (acetylcholine)): 73.57% | YFP fluorescence quenching (percent quench) (1 mM ach (acetylcholine)): 71.8% | YFP fluorescence quenching (percent quench) (3 mM ach (acetylcholine)): 74.49% | YFP fluorescence quenching using Facinicline, 30 nM fac (ligand Facinicline 30 nM): 69.94 | YFP fluorescence quenching using Facinicline, 300 nM fac (ligand Facinicline 300 nM): 80.07 | YFP fluorescence quenching using Facinicline, 30 uM fac (ligand Facinicline 30 uM): 78.32 | YFP fluorescence quenching using TC-6987, 1 uM tc6987 (ligand TC-6987 1 uM): 73.37 | YFP fluorescence quenching using TC-6987, 10 uM tc6987 (ligand TC-6987 10 uM): 78.18 | YFP fluorescence quenching using TC-6987, 500 uM tc6987 (ligand TC-6987 500 uM): 75.42 | YFP fluorescence quenching using Varenicline, 3 nM var (first column): −5.939 | YFP fluorescence quenching using Varenicline, 3 nM var (second column): −2.294 | YFP fluorescence quenching using Varenicline, 30 nM var (first column): 68.663 | YFP fluorescence quenching using Varenicline, 30 nM var (second column): 70.718 | YFP fluorescence quenching using Varenicline, 300 nM var (first column): 79.88 | YFP fluorescence quenching using Varenicline, 300 nM var (second column): 79.742 | YFP fluorescence quenching using Varenicline, 500 nM var (first column): 79.311 | YFP fluorescence quenching using Varenicline, 500 nM var (second column): 80.029 | YFP fluorescence quenching using Varenicline, 1 uM var (first column): 80.952 | YFP fluorescence quenching using Varenicline, 1 uM var (second column): 79.329
